Laboratory results: the DeepSol protein solubility set

Test: soluble on expression in E. coli; label from the status in PepcDB or PDB records

Row | Sequence | soluble on expression in E. coli
1 | GMNRGKALQLVKPHLTEHRYQHTIGVMETAIDLAKLYGADQQKAELAAIFHDYAKFRDKNEMRTLIREKLSQQDILFYGDELLHAPCGAYYVREEVGIEDEDVLQAIRFHTTGRPNMSLLEKIIFLADYIEPNRQFPGVEKVRTQAKTDLNGAIISSLVNTITFLLKKNQPIYPDTLATYNQLLLEQK | soluble
2 | MAHHHHHHMIDEKSKMYSKNDEFNVKKEMDMNLKCDNVNLDIWNTSFLNNETLNEDIFIHIGNKLLKMYYTTNHNIPSETLYSLLYEMKNGYNNVPYHNSIHAAMVTHHCNVLVSNLNTANILRDNELGALFVASLGHDIGHFGRTNIFLKNCCNFLSIIYNDKSILENYHCSYLFNILLKDENNIFKNEDPKCLLALRQQIIELILATDMSKHIKILAQFRIKSIKIKSYIEKNIILCLKMIIKAADLSHNCVDWSEHYQWVKRLVNEFYYEGDELFQMGYKINPLFDRNCHNNFIQIQRTFLKELVYPLIISLKTLDNTSITQDMINNVKRNYSKWTKIEKCQIKKKKYLNELLCNIPDNWARVYYPNLNIY | not soluble
3 | QSKFKKYSKMPLASGMTGKDVAEKMLHDNGIYDVRVTSTPGMLTDHYNPANKTVNLSEGVYGSNSVAAAAVAAHECGHAVQHARAYAPLKMRS | not soluble
4 | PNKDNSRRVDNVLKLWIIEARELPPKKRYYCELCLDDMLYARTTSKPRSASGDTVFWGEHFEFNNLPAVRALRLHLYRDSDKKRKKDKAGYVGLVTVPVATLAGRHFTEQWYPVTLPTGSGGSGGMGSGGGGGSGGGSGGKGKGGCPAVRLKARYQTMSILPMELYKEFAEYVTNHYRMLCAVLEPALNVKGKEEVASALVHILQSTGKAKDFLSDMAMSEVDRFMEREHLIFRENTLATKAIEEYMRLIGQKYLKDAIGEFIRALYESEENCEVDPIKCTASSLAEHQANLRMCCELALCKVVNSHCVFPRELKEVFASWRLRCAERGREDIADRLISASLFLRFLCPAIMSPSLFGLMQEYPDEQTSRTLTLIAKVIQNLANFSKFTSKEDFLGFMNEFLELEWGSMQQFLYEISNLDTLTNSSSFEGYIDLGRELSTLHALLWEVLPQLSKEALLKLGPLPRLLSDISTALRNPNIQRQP | soluble
5 | MHTVVMTKGVPDFREGQVSFDEDGHLERGKTPTVMNPNDKHALRAAFQTKVRNGGHVSLMSMGPPGYKEVLQEGMRDVYADDLYLLSDREMGAADTWATAMTVATGLQNLEEQPDLVFAGFKTADGETGHTGPQTCWCLDWPIITHVLSLDIDEDAGTVRAKRLVDGDISEIETVEAPMPCFIVADPEFEPTYRKASHRLKHKDLREETQERATEYEEYLTIWDHEGLNLDPDYIGLDGSPTIVAGVDPIPKAPSEREATVIEADEREALEPVLDELTPYAAGD | not soluble
6 | NIEQGLYAMLGVYVSSKTIDVVQVGFNRSKMALIITKQEQAVKEAVLQKIDRGVTKISAVGGYTDDDRPILMCVVGQTEFTKLKQIVKQIDESAFVIVADASEVLGEGFKRA | not soluble
7 | MKANSDELQSFVSVVDSGSISAAAEQMGLTASAVSRTLSRLEHKLGTTLLNRTTRRMELTEEGRYFLDQARQILQQMEALEERLALRRQSPAGRLRINAASPFMLHAVVPHIGEFRRLYPDIQLELNTNDLIIDLLEQRTDVAIRIGALSDSTLHARPLGASRLHILASPEYLARHGTPASIEGLRGHTLLGFTQPEHLNRWPVVHADGDRLEIQPDISASSGETLRQLALSHQGIACLASFMTDRDIQDGRLVPLFAEQMSEYRQPIHAVYYRNSQLALRIQCFLDFIQQRLGA | not soluble
8 | MGSDKIHHHHHHMLKQLYLTVLRWRPYKHKKVKIVYIMSFPRNDGHLIEQLEQHYHGMIIVLYTKNCQSYAASLNQKGIKTILFDKKTLLITTAISYLKSAPLIFVDNYFPELAILKKKQVVIQLWHANGALKQFGWGAYHTKHRSSKDQIRFQKVYDKMNYFIVNSLKMEAIFRNNYRLENAQFCHFGSPRLAYLEKLEVGETNQNNKVLYAPTYREGMNEMMLVINQAIKAFSAMPNFHFYMKLHPSIQLDAIELPRNVSIWEKHIFESFSEIGYLITDYSSVVFEYMHVKEQPNILFFCPDLEKYALNPGIEPDFFEYLPGPLVENEKQLIVALSNFSINSYKDNITRINEEWNQYQSKETINKIVELVERILGGFCEK | not soluble
9 | MDTNITWHTASVSKDERRVKNGHHSFVIWFTGLSASGKSTVANAVARKLFEKNIGNYVLDGDNIRHGLNKDLGFSESDRMENIRRIGEVAKLFVDQGAVVLTAFISPFRVDRKQVRDLLAVDEFIEVFVKCPIEECEKRDPKGLYKKARKGDIKEFTGIDSPYEEPEKAELIVETHKYSIEECAEQIVKYLQERSLI | not soluble
10 | SLINNLSTHSYWPNRGQLEVQGLTVKYTEAGRAVLNDISFSVDGGQSVGLLGRTGSGKSTLLSALLGLNYTEGEMFIDGVSSSSMPLQAWRKAFGVVPQKVFILTGTFRMNLDPYGRYSDDELWRVAEEVGLKSVIEQFPDKLDFELKDGGSVLSNGHKQLMCLARSILSKARILLLDEPSSYLDPITLQVLRKTLKQSFSGCTVILSEAKVEPLLECDSFLMIEKSSVKSYDSIQKLMNEMSHLKQAISPAD | soluble
11 | MATQKEKPSSNSFKWFSTKTLKLNLSFQNRRRSPKSNSSSTLNSPRSNSDDNNNIKSHQASKEELRQVFSHFDSDGDGKISAFELRHYFGSVGEYISHEAAQEAINEVDTDADGSLGFEDFVGLMTRRDLYGDGEVDGDGELKTAFEMFEVEKGSGCITPKGLQKMLVKLGESRTYGECEAMIKFYDIDGNGILDFHEFRQMMTV | soluble
12 | MSNHDQLHRYLFANHAVRGELVSVNETYQQVLANHDYPPAVQKLLGEMLVATSLLTATLKFDGDITVQLQGGDGPLTLAVINGNNRQEMRGVARVKGEISDDSTLQEMVGNGYLVITITPAQGERYQGVVALEGETIAACLENYFMQSEQLPTRLFIRTGHVADKAAAGGMLLQVLPAQERNEDEFDHLAQLTATIKAEELFTLPANEVLYRLYHQEEVTLYEPQNVSFRCTCSRQRCADALVTLADDDVTEMLEQDGNIDMHCEYCGNHYLFDAVDIATLKNGNSASSEQIH | not soluble
13 | MENDMKSLSAAAQACVKKMRDAKVNEACIRTFIAQHVMVSKGETGSIPDSAIMPVDSLDALDSLTIECDNAVLQSTVVLKLNGGLGTGMGLCDAKTLLEVKDGKTFLDFTALQVQYLRQHCSEHLRFMLMDSFNTSASTKSFLKARYPWLYQVFDSEVELMQNQVPKILQDTLEPAAWAENPAYEWAPPGHGDIYTALYGSGKLQELVEQGYRYMFVSNGDNLGATIDKRVLAYMEKEKIDFLMEVCRRTESDKKGGHLARQTVYVKGKDGQPDAEKRVLLLRESAQCPKADMESFQDINKYSFFNTNNLWIRLPVLLETMQEHGGTLPLPVIRNEKTVDSSNSASPKVYQLETAMGAAIAMFESASAIVVPRSRFAPVKTCADLLALRSDAYVVTDDFRLVLDDRCHGHPPVVDLDSAHYKMMNGFEKLVQHGVPSLVECKRVTVKGLVQFGAGNVLTGTVTIENTDSASAFVIPDGAKLNDTTASPQQSTNKMRPLEHHHHHH | soluble
14 | MRRAFITGVFFLSEVEFSHEYWMRHALTLAKRAWDEREVPVGAVLVHNNRVIGEGWNRPIGRHDPTAHAEIMALRQGGLVMQNYRLIDATLYVTLEPCVMCAGAMIHSRIGRVVFGARDAKTGAAGSLMDVLHHPGMNHRVEITEGILADECAALLSDFFRMRRQEIKAQKKAQSSTD | soluble
15 | VTQPSGLKNLLRAAAGALPVVPRTDQLPNRTVTVEELPIDPANVAAYAAVTGLRYGNQVPLTYPFALTFPSVMSLVTGFDFPFAAMGAIHTENHITQYRPIAVTDAVGVRVRAENLREHRRGLLVDLVTNVSVGNDVAWHQVTTFLHQQRTSLSGEPKPPPQKKPKLPPPAAVLRITPAKIRRYAAVGGDHNPIHTNPIAAKLFGFPTVIAHGMFTAAAVLANIEARFPDAVRYSVRFAKPVLLPATAGLYVAEGDGGWDLTLRNMAKGYPHLTATVRGL | not soluble
16 | MRIFLDANVIADWILLKNKNQDASDPLLTERYRHMAESFKLVEEILKLKEKVSGTSQMAIAEVFGVIYDDAINMKLFREAVPASSWYWFSIRERKALSEDSQQLFLMEPHTSPQGI | not soluble
17 | MTLKTSVLALLLDNVHVLLIANPESTTQTQKLFRRVVPALMALDGVSLEARFTHYGGHAEEMVAGLTVDDFDVIIPAGGDGTVNEVINGLLGSAEGDFRNLEDLPAIAVLPTGSANVFARALGYPTDPYAAADALVELIRKNHTRTITLGTWKGDDQGTRWFAVNAGFGIDADVIARVERARSFGFAASPLLYLQVSLRAWVKTQIKPPKITVEAVDSKGHKLQKEEVPMLLASNTNPWTFLGPLPVVTNPQNSFDTGLGLFGLTSVRGFGGVAAMMHLIGVGHGRKLEKLIAKRTIAFDDAEKVTLTCDSDQRFQVDGEYEGKPTKVVLESITDAVRVYAPKTHPTPPIMNWAVHLFKHVRDFLRVRTFGI | not soluble
18 | MNLEKLEVSHDADSLCVVIEISKHSNIKYELDKESGALMVDRVLYGAQNYPANYGFVPNTLGSDGDPVDALVLSDVAFQAGSVVKARLVGVLNMEDESGMDEKLIALPIDKIDPTHSYVKDIDDLSKHTLDKIKHFFETYKDLEPNKWVKVKGFENKESAIKVLEKAIKAYQG | soluble
19 | MITSPFERELKLLNEGELGIVQQLVESSNIGFIVDLELDGDYGWAVYKPELGEQPLWDFPPGLYKRERAAFVISEFLGWNIVPPTVIMHDAPAGVGSVQWFIENNGEHYFPLFDTRADLHPQFVRMAVFDLLCNNTDRKAGHVLLDGDHIWGIDHGLCFSVEPKLRTVIWDFAGCTIPDDLVTDVEQLLEDVPEELHQLLHPAEIDALQRRASRISRLPFLPQAKSHRQFPWPLVLEHHHHHH | soluble
20 | MICTLLVPVLGSFELVGQSIKDALAEYTLTDIMNNNQFAGIEFGEAEDGFPAFRFLQTADVKSPYRMLLPEKLYEFAILITFRQSSLKGGYLFSVVNPLDTVVQLGVHLSPVVKNSYNVSLVYTQADQNIGRKLASFGVAHVPDKWNSIALQVLSDKVSFYYDCELRNTTLVTREPIELVFDSASTLYIGQAGSIIGGKFEVSSGGGQFDYAFDLQSIVGELEHHHHHH | not soluble
21 | PLESCVRLHSSSGTTGNPTVMLYTQNDLDNWSKLMARCMSLSGANRHDIFQNIMGYGLFTGGIGFHYGAERLGMLTIPIGPGNSKRQGWFMKHLGVSVVHILPSYAFRLYSHLKEEGVDPKELPLRIAFIGAEPHSEAMRREIERLYGIKAFNSFGLSEMNGPGVAFECQEQSGMHLW | not soluble
22 | MNIRQAKTSDAAAIAPLFNQYREFYRQASDLQGAEAFLKARLENHESVILIAEENGEFIGFTQLYPTFSSVSMKRIYILNDLFVVPHARTKGAGGRLLSAAKDYAGQNGAKCLTLQTEHHNRKARSLYEQNGYEEDTGFVHYCLNVPAK | soluble
